Assay results taken from US20040248184A1 (published 2004).
Values belong to the binder of their own block, whether it stands above or below them.

B2: rat Reg protein (Reg I) (ligand, UniProt P10758 22-165, looked up)
chain: QEAEEDLPSARITCPEGSNAYSSYCYYFMEDHLSWAEADLFCQNMNSGYLVSVLSQAEGNFLASLIKESGTTAANVWIGLHDPKNNRRWHWSSGSLFLYKSWDTGYPNNSNRGYCVSVTSNSGYKKWRDNSCDAQLSFVCKFKA
modifications: as tracer labelled with 125I using Bolton-Hunter reagent; used unlabelled as competitor
notes: mature; also called rat Reg I
B3: rat Reg receptor (rat Reg-binding protein, rat homologue of human EXTL3/EXTR1), 919 amino acids, with N-terminal HA tag (receptor)
chain: YPYDVPDYAMTGYTMLRNGGVGNGGQTCMLRWSNRIRLTWLSFTLFIILVFFPLIAHYYLTTLDEADEAGKRIFGPRAGNELCEVKHVLDLCRIRESVSEELLQLEAKRQELNSEIAKLNLKIEACKKSIENAKQDLLQLKNVISQTEHSYKELMAQNQPKLSLPIRLLPEKDDAGLPPPKVTRGCRLHNCFDYSRCPLTSGFPVFVYDSDQFAFGSYLDPLVKQAFQATVRANVYVTENAAIACLYVVLVGEIQEPAVLQPADLEKQLHSLPHWRTDGHNHVIINLSRKSDTQNLLYNVSTGRAMVAQSTFYAAQYRAGFDLVVSPLVHAMSEPNFMEIPPQVPVKRKYLFTFQGEKIESLRSSLQEARSFEEEMEGDPPADYDDRIIATLKAVQDSKLDQVLVEFTCKNQPKPSLPTEWALCGEREDRLELLKLSTFALIITPGDPSLLISSGCATRLFEALEVGAVPVVLGEQVQLPYHDMLQWNEAALVVPKPRVTEVHFLLRSLSDSDLLAMRRQGRFLWETYFSTADSIFNTVLAMIRTRIQIPAAPIREEVAAEIPHRSGKAAGTDPNMADNGDLDLGPVETEPPYASPKYLRNFTLTVTDCYRSWNSAPGPFHLFPHTPFDPVLPSEAKFLGSGTGFRPIGGGAGGSGKEFQAALGGNVQREQFTVVMLTYEREEVLMNSLERLNGLPYLNKVVVVWNSPKLPSEDLLWPDIGVPIMVVRTEKNSLNNRFLPWNEIETEAILSIDDDAHLRHDEIMFGFRVWREARDRIVGFPGRYHAWDIPHQSWLYNSNYSCELSMVLTGAAFFHKYYAYLYSYVMPQAIRDMVDEYINCEDIAMNFLVSHITRKPPIKVTSRWTFRCPGCPQALSHDDSHFHERHKCINFFVKVYGYMPLLYTQFRVDSVLFKTRLPHDKTKCFKFI
notes: also called rEXTL3; pCI•rEXTL3
B4: human REG protein (REG Iα) (ligand, UniProt P05451 23-166, looked up)
chain: QEAQTELPQARISCPEGTNAYRSYCYYFNEDRETWVDADLYCQNMNSGNLVSVLTQAEGAFVASLIKESGTDDFNVWIGLHDPKKNRRWHWSSGSLVSYKSWGIGAPSSVNPGYCVSLTSSTGFQKWKDVPCEDKFSFVCKFKN
notes: mature; also called human REG Iα; REG Ia

Legend:
[1] = target: B2; assay: binding of 10 nM [125I] rat Reg I to transiently transfected COS-7 cells on ice for 2 h, gamma counting, with (+) or without (-) 100-fold unlabelled rat Reg I
Method: Specifically, first, [¹²⁵I] rat Reg I stock solution (50 ng/μl=˜3.33 μM, 2.7×10⁵ cpm/μl) was diluted to 10 nM using DMEM. In addition, a diluted solution in which non-labeled Reg I stock solution (2250 ng/μl=150 μM) was added at 100-folds the concentration of [¹²⁵I] Reg I (1 μm), was prepared.
3 ml of 2.5×10⁵ cells/ml transfected COS cells were seeded onto 6 well plates and cultured at 37° C. for 2 days. After washing with ice-cold DMEM, 3 ml DMEM containing [¹²⁵I] rat Reg I was added (10 nM, final concentration). In a competitive inhibition experiment, 100-fold amount of non-labeled Reg I coexisted. After keeping on ice for 2 hours and then washing 3 times with DMEM, 1 ml/well of [100 mM Tris-HCl (pH 7.6), 1 mM EDTA, 1% Triton X-100] was added to lyze the cells, and [¹²⁵I] radioactivity was counted by using a γ-counter.

[2] = target: B3; assay: displacement of 125I rat Reg protein from CHO cells stably expressing the rat Reg receptor
Method: (§1) The rat Reg-binding protein (also called EXTL3/EXTR1) expression vector constructed in Example 8 or the control vector was introduced into COS-7 cells by electroporation and expressed transiently. CHO cells expressing the Reg receptor stably were isolated as described above. The cells (7.5×10⁵ cells) were washed with RPMI1640 (Roswell Park Memorial institute 1640 medium) and incubated on ice in the presence of ¹²⁵I labeled rat Reg protein (50 ng/ml, 1.5×10⁵ cpm/ml) with various concentrations of unlabeled rat Reg or human REG protein in RPMI1640 containing 1% fetal calf serum for 2 h. After washing with RPMI1640 three times, cells were solubilized by 1 ml of 100 mM Tris-HCl (pH 7.6), 1 mM EDTA and 1% Triton X-100. The radioactivity of the lysate was-determined by a γ-counter (Cobra, Packard). As a result, rat Reg binding protein expression vector-introduced-COS-7 cells bound to ¹²⁵I-labeled rat Reg protein and the binding was decreased by the addition of unlabeled Reg protein (FIG. 6).

[3] = target: B2; assay: radioligand binding of 125I rat Reg protein to CHO cells stably expressing the rat Reg receptor
Method: as §1

[4] = target: B4; assay: competition binding on CHO cells stably expressing the rat Reg receptor (line RegR-#3): unlabelled human REG is varied against 125I rat Reg protein (50 ng/ml), gamma counting
Method: as §1

[5] = target: B3; assay: displacement of 125I rat Reg protein (competitor tracer) from CHO cells stably expressing the rat Reg receptor
Method: as §1

binding result [1]: binds
B1: rat Reg-binding protein comprising 364 amino acids (cDNA isolated in Example 5, expression vector pCI-167.1) (receptor)
chain: MTGYTMLRNGGVGNGGQTCMLRWSNRIRLTWLSFTLFIILVFFPLIAHYYLTTLDEADEAGKRIFGPRAGNELCEVKHVLDLCRIRESVSEELLQLEAKRQELNSEIAKLNLKIEACKKSIENAKQDLLQLKNVISQTEHSYKELMAQNQPKLSLPIRLLPEKDDAGLPPPKVTRGCRLHNCFDYSRCPLTSGFPVFVYDSDQFAFGSYLDPLVKQAFQATVRANVYVTENAAIACLYVVLVGEIQEPAVLQPADLEKQLHSLPHWRTDGHNHVIINLSRKSDTQNLLYNVSTGRAMVAQSTFYAAQYRAGFDLVVSPLVHAMSEPNFMEIPRVTIFSLGRGEEEQEKLGVWRGRPPPGWGAGP
notes: also called 1.6 kbp cDNA clone

Binder: B2
Ki [2]: 1.61 nM

Binder: B3
Kd [3]: 4.41 nM
binding result [4]: binds

Binder: B4
Ki [5]: 7.41 nM
